Laboratory results as given in patent US7704951B2, “Method for ameliorating dyskinesia” (Juridical Foundation the Chemo-Sero-Therapeutic Research …, priority 2001, dated 2010).
“Also recorded” adds a separate entry of the source. Where no end group is shown, it is not given here. [ ]: non-standard residue; d: D form. Sec = N[C@@H](C[SeH])C(=O)O

Columns and labels:
[1] = system: Dami cells; assay: Cytotoxicity-inhibitory (cell death-inhibitory) activity assay using Dami cells; assay type: cell-based; conditions: for cytotoxicity-inhibitory activity: Dami cells, fatty acid-containing assay medium, 4 to 5 days, survival of the cells
Experimental: Using Dami cells (described in Greenberg S. M. et al., Blood, vol. 72, p. 1968-1977 (1988)) for use in assay system for cytotoxicity-inhibitory activity, the cells were washed twice with assay medium (50% PBS/SA/0.03% HSA (manufactured by SIGMA) or SA/0.05% BSA free from fatty acid (WAKO)/4 μM long-chain polyvalent fatty acid (e.g. arachidonic acid, linoleic acid or linolenic acid)) and suspended in the same medium at 3×10^4 cells/ml. The cell suspension was added to a 96-well plate in each 200 μl for wells for sample addition or in each 100 μl for wells for serial dilution. To the wells for sample addition was added each 2 μl assay sample containing either selenoprotein P fragment prepared in Preparation 1, selenocystine, selenomethionine, Ebselen, or sodium selenite at the same concentration. After stirring, a serial dilution was made with the wells containing 100 μl cell suspension. The plate was incubated at 37° C. in CO2 incubator for 4 to 5 days followed by assessment of survival of the cells.

[2] = cited from earlier work
[3] = system: gerbil mice; assay: Cerebral ischemia/reperfusion injury model (blocking both carotid arteries), degree of paralysis; assay type: in vivo; conditions: 1 mg/animal i.v., vs control
Experimental: Effect of selenoprotein P on dyskinesia induced by cerebral ischemia/reperfusion injury was assessed with a degree of paralysis using gerbil mice of 12 weeks old. […] […] A degree of paralysis was assessed after 6 and 24 hours.

[4] = system: EAE mice (SJL/JOrIICrj); assay: Experimental allergic encephalomyelitis (EAE) in mice, degree of paralysis; assay type: in vivo, mouse; conditions: 0.5 mg/head daily i.p. Day 8 to Day 13
Experimental: For investigating the effect of selenoprotein P on dyskinesia induced by immunopathy based on a degree of paralysis, an experiment was performed wherein selenoprotein P was administered to EAE mice. Female SJL/JOrIICrj of 14 weeks old (Charles River Japan, Inc.) was used as a test animal. Myelin proteolipid protein (PLP) synthetic peptide 139-151 (amino acid sequence: His Ser Leu Gly Lys Trp Leu Gly His Pro Asp Lys Phe (SEQ ID NO: 6); […]) as an immunogen was intradermally administered to the mice together with Freund complete adjuvant H37Ra ([…]) and pertussis toxin (manufactured by List Biological Laboratory; 200 ng/mouse) at two portions at the neck of tail.
Thirteen mice each in two groups received daily 0.5 mg/head of selenoprotein P via intraperitoneal administration from the day (Day 8) previous to onset of the disease till Day 13. A control group received saline via intraperitoneal administration.

[5] = system: hNT cells; assay: Survival and protrusion formation in cultured human neurocytes; assay type: cell-based
Experimental: NT2 (Ntera2/D1) (Pleasure, S. J. and Lee, V. M., 1993, J. Neurosci. Res. 35: 585-602) is a progenitor neurocyte derived from human teratocarcinoma and can be differentiated with retinoic acid into hNT neurocytes having the properties of the nerve in the central nervous system (Trojanowski, J. Q. et al., 1993 Exp. Neurol. 122: 283-294). Effect of selenoprotein P on protrusion formation in the hNT cells was investigated.
Both NT2 and hNT cells can be cultured in CO2 incubator at 37° C. The hNT cells were prepared as follows: NT2 cells, being capable of passage culture in 10% FCS/D-MEM/F-12 medium, were first plated at 2.5×10^5 cells/ml. After 24 hours, the culture medium was replaced with D-MEM/F-12 containing 10 μM all-trans retinoic acid to initiate induction. The culture was subsequently continued for six weeks while replacing with the same medium every three days to differentiate NT2 cells into hNT cells. All the differentiated cells were recovered and expanded by 3-folds by passage culture with 10% FCS/D-MEM/F-12 medium. After 48 hours, the cells were plated at 3 to 4×10^6 cells/ml. After 48-hour culture, the culture medium was replaced with 5% FCS/D-MEM/F-12 plus mitotic inhibitor (10 μM Fluorodeoxyuridine, Uridine, 1 μM cytosine arabinoside) and culture was continued for ten days while replacing with the same medium every three days. Subsequently, the culture was treated with trypsin for a short time period and then lightly tapped to release the hNT cells which were recovered. The recovered cells were suspended in a mixed medium of an equal amount of NT2 culture supernatant (10% FCS/D-MEM/F-12 medium) and a fresh 10% FCS/D-MEM/F-12 medium. The suspension was plated on Laminin coating plate to maintain the cells. The hNT cells thus obtained were used in the following experiment.
The hNT cells were recovered by trypsin treatment, washed with a basal medium of RPMI 1640/D-MEM/F-12 (1:2:2), suspended in the same basal medium and cultured in 96-well plate at 3000 cells/well. On Day 5 to Day 7, the cells died completely.

[6] = Toxicity of selenium compounds (cell culture); conditions: in spite of 9 to 10 selenocysteines
Source text: Selenium per se, as involved in the present invention, is one of essential trace elements and it is known that deficiency thereof induces a serious deficiency disease accompanied by, for instance, cardiomyopathy. […] Acute toxic symptoms of selenium include, for example, pale face, neurological symptoms, dermatitis, and gastrointestinal disorders.

KRCINQLLCKLPTDSELAPRS (cysteine pairing not given here) [SEQ ID NO: 5, selenoprotein P-derived peptide with no selenocysteine, reference compound]
cytotoxicity-inhibitory activity [1]: exhibit no cytotoxicity-inhibitory activity

Lys Arg Cys Ile Asn Gln Leu Leu Cys Lys Leu Pro Thr Asp Ser Glu Leu Ala Pro Arg Ser Xaa Cys Cys His Cys Arg His Leu Ile Phe Glu Lys (KRCINQLLCKLPTDSELAPRS[Sec]CCHCRHLIFEK; cysteine pairing not given here; listed as Homo sapiens) [SEQ ID NO: 4, peptide purified from selenoprotein P fragments under reduced condition; Xaa = selenocysteine]
cytotoxicity-inhibitory activity [1]: exhibit cytotoxicity-inhibitory activity

N[C@@H](C[Se][Se]C[C@H](N)C(=O)O)C(=O)O [selenocystine]
toxicity when added alone to cell culture [2]: fairly strong toxicity

B1: selenoprotein P (protein, UniProt P49908 20-381, looked up)
Selenoprotein P: ESQDQSSLCKQPPAWSIRDQDPMLNSNGSVTVVALLQASUYLCILQASKLEDLRVKLKKEGYSNISYIVVNHQGISSRLKYTHLKNKVSEHIPVYQQEENQTDVWTLLNGSKDDFLIYDRCGRLVYHLGLPFSFLTFPYVEEAIKIAYCEKKCGNCSLTTLKDEDFCKRVSLATVDKTVETPSPHYHHEHHHNHGHQHLGSSELSENQQPGAPNAPTHPAPPGLHHHHKHKGQHRQGHPENRDMPASEDLQDLQKKLCRKRCINQLLCKLPTDSELAPRSUCCHCRHLIFEKTGSAITUQCKENLPSLCSUQGLRAEENITESCQURLPPAAUQISQQLIPTEASASURUKNQAKKUEUPSN
cell death-inhibitory activity per proteins ([1]; full-length protein compared with fragment fraction from Preparation 1): much lower than that of the fragment | degree of paralysis (score, Table 1) ([3]; 30 minutes ischemia model, after 6 and 24 hours): apparently exhibited better conditions | degree of paralysis (score, Table 1) ([3]; 45 minutes ischemia model, after 6 hours): no significant difference | degree of paralysis (score, Table 1) ([3]; 45 minutes ischemia model, after 24 hours): much difference | onset of the disease [4]: onset of the disease was inhibited | severity of the disease (paralysis score, Table 2) [4]: severity of the disease was lowered | survival time of hNT cells ([5]; 100 ng/ml, basal medium): more than two weeks | cell death of hNT cells ([5]; 100 ng/ml, basal medium RPMI 1640/D-MEM/F-12, without addition cells died completely on Day 5 to Day 7): completely inhibited | protrusion formation (cellular morphology) ([5]; hNT cells, observed on Day 4, FIG. 3): protrusion formation was observed; also recorded: protrusion was formed | toxicity [6]: no strong toxicity
